Reference: the supplement of paper PMC6757056
± gives the standard deviation of the averaged measurements.

B1: library; a variant is named by its letters at N, in order (parent)
chain: GCUGUCACCGGUGUAUUACCCUAGUGGUCGACCGGUCUGAUGAGUCUNNNNNNAGACGAAACAGC

What was measured:
hypoxanthine [1] = variants of: B1; experiment: normalized RNA/DNA level with ligand (relative to sTRSVctl = 100) (log10 (% of sTRSVctl)); ligand: hypoxanthine (xanthine aptamer); higher = less ribozyme self-cleavage, higher mRNA level; conditions: ligand concentration (+) RNA-Seq: 5 mM, HEK293T, reporter: mCherry (pCS4076), ligand present: yes
In short: (§1)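 Only sequences with at least 100 DNA reads were analyzed, from HEK293T cells transfected with 4 µg per 6-well well of ribozyme switch library plasmids 72 h before RNA extraction with EDTA. Any ligand was added 1 h before transfection. RNA level was defined as RNA over DNA reads, normalized to a spiked-in non-cleaving sequence or to the top sequences, then scaled and log-transformed. The top set was 25 sequences, and the scaling was ×100 followed by log10.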

hypoxanthine [2] = variants of: B1; experiment: normalized RNA/DNA level without ligand (relative to sTRSVctl = 100) (log10 (% of sTRSVctl)); ligand: hypoxanthine (xanthine aptamer); higher = less ribozyme self-cleavage, higher mRNA level; conditions: HEK293T, reporter: mCherry (pCS4076), ligand present: no
In short: as §1

## GCUGUCACCGGUGUAUUACCCUAGUGGUCGACCGGUCUGAUGAGUCUACGGCCAGACGAAACAGC [ACGGCC]
Hypoxanthine [1]
  normalized RNA/DNA level with ligand (log10): 1.96 ± 0.02
Hypoxanthine [2]
  normalized RNA/DNA level without ligand (log10): 1.88 ± 0.029

## GCUGUCACCGGUGUAUUACCCUAGUGGUCGACCGGUCUGAUGAGUCUACGGCUAGACGAAACAGC [ACGGCU]
Hypoxanthine [1]
  normalized RNA/DNA level with ligand (log10): 1.88 ± 0.034
Hypoxanthine [2]
  normalized RNA/DNA level without ligand (log10): 1.6 ± 0.016

## GCUGUCACCGGUGUAUUACCCUAGUGGUCGACCGGUCUGAUGAGUCUGCGGGCAGACGAAACAGC [GCGGGC]
Hypoxanthine [1]
  normalized RNA/DNA level with ligand (log10): 1.86 ± 0.046
Hypoxanthine [2]
  normalized RNA/DNA level without ligand (log10): 1.58 ± 0.084

## GCUGUCACCGGUGUAUUACCCUAGUGGUCGACCGGUCUGAUGAGUCUCCGGUAAGACGAAACAGC [CCGGUA]
Hypoxanthine [1]
  normalized RNA/DNA level with ligand (log10): 1.93 ± 0.034
Hypoxanthine [2]
  normalized RNA/DNA level without ligand (log10): 1.863 ± 0.0044

## GCUGUCACCGGUGUAUUACCCUAGUGGUCGACCGGUCUGAUGAGUCUCCGGUCAGACGAAACAGC [CCGGUC]
Hypoxanthine [1]
  normalized RNA/DNA level with ligand (log10): 1.96 ± 0.039
Hypoxanthine [2]
  normalized RNA/DNA level without ligand (log10): 1.95 ± 0.029

## GCUGUCACCGGUGUAUUACCCUAGUGGUCGACCGGUCUGAUGAGUCUCCGGCAAGACGAAACAGC [CCGGCA]
Hypoxanthine [1]
  normalized RNA/DNA level with ligand (log10): 1.97 ± 0.03
Hypoxanthine [2]
  normalized RNA/DNA level without ligand (log10): 1.895 ± 0.0097

## GCUGUCACCGGUGUAUUACCCUAGUGGUCGACCGGUCUGAUGAGUCUCCGGCCAGACGAAACAGC [CCGGCC]
Hypoxanthine [1]
  normalized RNA/DNA level with ligand (log10): 1.98 ± 0.029
Hypoxanthine [2]
  normalized RNA/DNA level without ligand (log10): 2 ± 0.051

## GCUGUCACCGGUGUAUUACCCUAGUGGUCGACCGGUCUGAUGAGUCUCCGGCGAGACGAAACAGC [CCGGCG]
Hypoxanthine [1]
  normalized RNA/DNA level with ligand (log10): 1.94 ± 0.13
Hypoxanthine [2]
  normalized RNA/DNA level without ligand (log10): 1.72 ± 0.14

## GCUGUCACCGGUGUAUUACCCUAGUGGUCGACCGGUCUGAUGAGUCUCCGGCUAGACGAAACAGC [CCGGCU]
Hypoxanthine [1]
  normalized RNA/DNA level with ligand (log10): 2.04 ± 0.043
Hypoxanthine [2]
  normalized RNA/DNA level without ligand (log10): 1.99 ± 0.024

## GCUGUCACCGGUGUAUUACCCUAGUGGUCGACCGGUCUGAUGAGUCUACGGUGAGACGAAACAGC [ACGGUG]
Hypoxanthine [1]
  normalized RNA/DNA level with ligand (log10): 1.8673 ± 0.00056
Hypoxanthine [2]
  normalized RNA/DNA level without ligand (log10): 1.24 ± 0.062

## GCUGUCACCGGUGUAUUACCCUAGUGGUCGACCGGUCUGAUGAGUCUACGGUCAGACGAAACAGC [ACGGUC]
Hypoxanthine [1]
  normalized RNA/DNA level with ligand (log10): 1.94 ± 0.039
Hypoxanthine [2]
  normalized RNA/DNA level without ligand (log10): 1.87 ± 0.0091

## GCUGUCACCGGUGUAUUACCCUAGUGGUCGACCGGUCUGAUGAGUCUUCGCUUAGACGAAACAGC [UCGCUU]
Hypoxanthine [1]
  normalized RNA/DNA level with ligand (log10): 1.984 ± 0.0024
Hypoxanthine [2]
  normalized RNA/DNA level without ligand (log10): 1.7 ± 0.035

## GCUGUCACCGGUGUAUUACCCUAGUGGUCGACCGGUCUGAUGAGUCUUCGCUGAGACGAAACAGC [UCGCUG]
Hypoxanthine [1]
  normalized RNA/DNA level with ligand (log10): 1.98 ± 0.069
Hypoxanthine [2]
  normalized RNA/DNA level without ligand (log10): 1.803 ± 0.0034

## GCUGUCACCGGUGUAUUACCCUAGUGGUCGACCGGUCUGAUGAGUCUUCGCUAAGACGAAACAGC [UCGCUA]
Hypoxanthine [1]
  normalized RNA/DNA level with ligand (log10): 1.96 ± 0.037
Hypoxanthine [2]
  normalized RNA/DNA level without ligand (log10): 1.725 ± 0.0084

## GCUGUCACCGGUGUAUUACCCUAGUGGUCGACCGGUCUGAUGAGUCUUCGCUCAGACGAAACAGC [UCGCUC]
Hypoxanthine [1]
  normalized RNA/DNA level with ligand (log10): 1.98 ± 0.049
Hypoxanthine [2]
  normalized RNA/DNA level without ligand (log10): 2.109 ± 0.015

## GCUGUCACCGGUGUAUUACCCUAGUGGUCGACCGGUCUGAUGAGUCUUCGGCCAGACGAAACAGC [UCGGCC]
Hypoxanthine [1]
  normalized RNA/DNA level with ligand (log10): 2.04 ± 0.081
Hypoxanthine [2]
  normalized RNA/DNA level without ligand (log10): 1.951 ± 0.006

## GCUGUCACCGGUGUAUUACCCUAGUGGUCGACCGGUCUGAUGAGUCUUCGGCAAGACGAAACAGC [UCGGCA]
Hypoxanthine [1]
  normalized RNA/DNA level with ligand (log10): 1.99 ± 0.056
Hypoxanthine [2]
  normalized RNA/DNA level without ligand (log10): 1.7 ± 0.098

## GCUGUCACCGGUGUAUUACCCUAGUGGUCGACCGGUCUGAUGAGUCUUCGGCUAGACGAAACAGC [UCGGCU]
Hypoxanthine [1]
  normalized RNA/DNA level with ligand (log10): 1.913 ± 0.014
Hypoxanthine [2]
  normalized RNA/DNA level without ligand (log10): 1.8 ± 0.063

## GCUGUCACCGGUGUAUUACCCUAGUGGUCGACCGGUCUGAUGAGUCUACGCUAAGACGAAACAGC [ACGCUA]
Hypoxanthine [1]
  normalized RNA/DNA level with ligand (log10): 1.948 ± 0.0038
Hypoxanthine [2]
  normalized RNA/DNA level without ligand (log10): 1.69 ± 0.063

## GCUGUCACCGGUGUAUUACCCUAGUGGUCGACCGGUCUGAUGAGUCUACGCUCAGACGAAACAGC [ACGCUC]
Hypoxanthine [1]
  normalized RNA/DNA level with ligand (log10): 2.02 ± 0.048
Hypoxanthine [2]
  normalized RNA/DNA level without ligand (log10): 1.908 ± 0.0022

## GCUGUCACCGGUGUAUUACCCUAGUGGUCGACCGGUCUGAUGAGUCUACGCUUAGACGAAACAGC [ACGCUU]
Hypoxanthine [1]
  normalized RNA/DNA level with ligand (log10): 1.907 ± 0.016
Hypoxanthine [2]
  normalized RNA/DNA level without ligand (log10): 1.5 ± 0.022
